Experimental data taken from paper PMC12809806, “Structural Analysis of Tilvestamab in Complex with AXL” (ACS Omega, 2025).

Experiments:
[1] = molecular target: T1, Human AXL-Fc containing the entire extracellular domain of human AXL (Homo sapiens, UniProt P30530); test: SEC-SAXS; SWING beamline (SOLEIL), HPLC mode; BioSEC-3 300 or BioSEC-5 1000 column in PBS or 10 mM histidine, 150 mM NaCl, pH 6; proteins alone and mixed, in solution; details: both partners purified
T1 construct: AXL receptor tyrosine kinase, human, entire extracellular domain (two Ig-like and two fibronectin type III domains); Dimer through the C-terminal Fc; also called dimeric AXL-Fc; source: bought: Evitria (Switzerland); not shown: Fc, C-terminal, kept
T1 sequence (P30530 26-451): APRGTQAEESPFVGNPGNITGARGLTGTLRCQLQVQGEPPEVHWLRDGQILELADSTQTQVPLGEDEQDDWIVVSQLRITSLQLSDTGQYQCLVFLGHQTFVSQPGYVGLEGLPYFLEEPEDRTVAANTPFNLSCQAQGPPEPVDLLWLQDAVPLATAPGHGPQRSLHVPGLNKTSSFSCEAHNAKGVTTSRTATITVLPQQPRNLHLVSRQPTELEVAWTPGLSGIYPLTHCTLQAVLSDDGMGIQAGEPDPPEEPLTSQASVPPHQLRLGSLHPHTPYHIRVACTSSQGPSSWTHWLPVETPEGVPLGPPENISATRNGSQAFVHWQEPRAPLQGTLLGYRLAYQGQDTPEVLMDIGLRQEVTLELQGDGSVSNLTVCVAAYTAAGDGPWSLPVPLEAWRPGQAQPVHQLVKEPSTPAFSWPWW

[2] = molecular target: T2, Monomeric sAXL, the soluble extracellular domain of AXL (human, UniProt P30530); test: as above; details: both partners purified
T2 construct: AXL receptor tyrosine kinase, human, soluble extracellular domain released from AXL-Fc by papain; also called monomeric AXL extracellular domain; source: papain digestion of AXL-Fc (Evitria), followed by protein A purification; not shown: Fc, C-terminal, cleaved
T2 sequence (P30530 26-451): as above

B1: Fab fragment of tilvestamab (Fab, V domains shown)
VH: EVQLVESGGGLVQPGGSLRLSCAASGYSFTDFYINWVRQAPGKGLEWVARIFPGGDNTYYNEKFKGRFTLSADTSKSTAYLQMNSLRAEDTAVYYCARRGLYYAMDYWGQGTLVTVSS
VL: DIQMTQSPSSLSASVGDRVTITCRSSQSLVHSNGIPYLHWYQQKPGKAPKLLIYRVSNRFSGVPSRFSGSGSGTDFTLTISSLQPEDFATYYCSQGTHVPPTFGQGTKVEIK
notes: heavy chain (HC) of the Fab; light chain (LC) of the Fab; also called tilvestamab Fab; source: papain proteolysis of tilvestamab (immobilized papain), MabSelect SuRe column
Q: How did the “stoichiometry N” value [1] turn out when B1 was run?
A: 1 Fab per AXL-Fc chain (2:2)

Q: And the “stoichiometry N” value [2]?
A: 1 Fab per sAXL (1:1)
